One substance from PMC3220508 can be followed below.

The test addresses HSPC038-EYFP fusion protein (human) (UniProt Q9Y5V0). Put plainly: FRET or BRET.
UniProt Q9Y5V0, sequence (Q9Y5V0 whole entry, the tested form may be a part): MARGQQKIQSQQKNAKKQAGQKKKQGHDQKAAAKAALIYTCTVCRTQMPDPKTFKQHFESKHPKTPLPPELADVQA

In the case of “ICln-ECFP fusion protein (from UniProt P54105 1-237) (natural protein)”, the normalized netFRET, 5 min hypotonic (isotonic = 1.00) turned out to be 1.31; the normalized netFRET, 15 min hypotonic (isotonic = 1.00) was 1.44; the normalized netFRET, 30 min hypotonic (isotonic = 1.00) is 1.49.
